The values that follow come from patent US20210198366A1 (NGM BIOPHARMACEUTICALS, published 2021).

The chains are these.
B3: soluble human B7-H7-Fc fusion protein (extracellular region of human B7-H7, aa 23-344, and a human Fc sequence) (Fc fusion, not shown: a dimerising Fc or GST)
chain: IFPLAFFIYVPMNEQIVIGRLDEDIILPSSFERGSEVVIHWKYQDSYKVHSYYKGSDHLESQDPRYANRTSLFYNEIQNGNASLFFRRVSLLDEGIYTCYVGTAIQVITNKVVLKVGVFLTPVMKYEKRNTNSFLICSVLSVYPRPIITWKMDNTPISENNMEETGSLDSFSINSPLNITGSNSSYECTIENSLLKQTWTGRWTMKDGLHKMQSEHVSLSCQPVNDYFSPNQDFKVTWSRMKSGTFSVLAYYLSSSQNTIINESRFSWNKELINQSDFSMNLMDLNLSDSGEYLCNISSDEYTLLTIHTVHVEPSQETASHN
notes: also called hB7-H7-Fc; soluble B7-H7

The target of assay [1] is T1, human B7-H7 (soluble analyte in SPR) (human, UniProt Q9UM44 23-344, limits assumed).
T1 sequence: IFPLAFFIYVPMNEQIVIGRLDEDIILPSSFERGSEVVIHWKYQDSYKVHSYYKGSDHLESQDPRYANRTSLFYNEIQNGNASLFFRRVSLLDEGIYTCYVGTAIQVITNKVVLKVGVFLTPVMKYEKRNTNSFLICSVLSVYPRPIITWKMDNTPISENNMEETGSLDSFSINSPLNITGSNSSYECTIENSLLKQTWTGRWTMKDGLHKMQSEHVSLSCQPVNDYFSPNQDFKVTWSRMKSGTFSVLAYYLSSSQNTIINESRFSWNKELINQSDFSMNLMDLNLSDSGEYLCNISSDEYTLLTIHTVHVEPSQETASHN
The assay is described as follows: SPR (Biacore), antibody captured by anti-Fc on CM5 chip, B7-H7 injected, 37 C. As for the experimental part:
(§1) The binding affinities of exemplary anti-B7-H7 antibodies to human B7-H7 and cyno B7-H7 were measured using SPR technology (Biacore system, GE Healthcare Life Sciences). Briefly, anti-Fc antibody (Sigma-Aldrich) was immobilized on all four flow cells of a CM5 chip using amine coupling reagents (GE Healthcare LifeSciences). Exemplary antibodies were captured on flow cells 2, 3, and 4 using flow cell 1 as a reference. Human B7-H7 or cyno B7-H7 (samples ranging from 0.62-40 nM) were injected at a flow rate of 50 μL/min at 37° C. Kinetic data were collected over time and fit using the simultaneous global fit equation to yield affinity constants (KD values) for each antibody.
For orientation: In SPR one partner is held on a chip, and binding of the other changes the refractive index at the surface.

In assay [2] the target is B3. Put plainly: FACS competition: antibody titrated against soluble hB7-H7-Fc binding to HEK-293 cells expressing human CD28H. The method, then:
(§2) Exemplary anti-B7-H7 antibodies identified by ELISA and FACS were tested for their ability to block binding of soluble B7-H7 to receptors KIR3DL3 or CD28H in a FACS assay. HEK-293 cells were transiently transfected with a construct encoding (i) a membrane-bound KIR3DL3 protein or (ii) a membrane-bound CD28H protein. After 48 hours, transfected cells were suspended in ice cold PBS containing 1% FBS and 0.1% sodium azide and incubated on ice in the presence of […]/ml of soluble human B7-H7-Fc protein and antibodies 2D7, 1D3, 28F3, 16D5, 2F10, 5F7, 5B10, 5C9, or 3H6 (serially diluted from […] to 4.6 ng/ml). A second incubation with an anti-human Fc secondary antibody was performed to detect cells bound by the soluble B7-H7-Fc. The cells were analyzed on a BD FACSCalibur instrument (BD Biosciences) and the data was processed using FlowJo software. Calculated IC50s are shown Table 12.

Assay [3] deals with T1, human B7-H7 (soluble analyte in SPR). Put plainly: SPR (Biacore). The method, then:
as §1
The binding affinity of Hz2D7 to human B7-H7 and cyno B7-H7 was determined using SPR technology (Biacore system) as described herein and compared with the binding affinity of the parental antibody and with a chimeric 2D7 antibody comprising the murine heavy chain and light chain variable regions of 2D7 and a human Fc region.

Assay [4] deals with T2, human B7-H7 expressed on the cell surface (human, UniProt Q9UM44 23-414).
T2 sequence: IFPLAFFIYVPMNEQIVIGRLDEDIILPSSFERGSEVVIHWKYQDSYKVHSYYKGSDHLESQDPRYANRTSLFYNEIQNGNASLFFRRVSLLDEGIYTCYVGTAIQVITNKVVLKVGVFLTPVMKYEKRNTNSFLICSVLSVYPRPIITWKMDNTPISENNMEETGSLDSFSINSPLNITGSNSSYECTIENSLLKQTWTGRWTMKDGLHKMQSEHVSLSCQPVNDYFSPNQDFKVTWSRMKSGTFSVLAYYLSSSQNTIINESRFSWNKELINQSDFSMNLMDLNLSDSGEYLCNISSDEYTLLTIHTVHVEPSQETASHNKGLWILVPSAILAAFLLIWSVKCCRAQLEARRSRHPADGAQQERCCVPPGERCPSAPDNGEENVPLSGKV
Put plainly: cell-based or functional assay.

Assay [5] has as its target B3. Put plainly: FACS competition: antibody titrated against soluble hB7-H7-Fc binding to HEK-293 cells expressing human KIR3DL3. The method, then:
as §2

In assay [6] the target is T3, human KIR3DL3 expressed on the cell surface (human, UniProt Q8N743 26-410).
T3 construct: also called cells expressing human KIR3DL3
Put plainly: cell-based fluorescence assay (CellInsight): soluble B7-H7-Fc titrated on HEK-293T cells transfected with KIR3DL3, Alexa Fluor 488 anti-human Fc detection; soluble B7-H7-Fc on KIR3DL3-transfected cells. As for the experimental part:
(§3) The molecule CD28H has previously been identified as a receptor of B7-H7 (Zhu et al., 2013, Nature Communications, ncomms3043; Zhu et al. refer to B7-H7 as “B7-H5”). Studies by the inventors have identified KIR3DL3 as a second receptor for B7-H7. HEK-293T cells were transiently transfected with a KIR3DL3 construct. 40,000 cells were aliquoted into each well of a 384-well plate and were transfected with 200 ng of plasmid DNA encoding KIR3DL3 using Lipofectamine™ 2000 (ThermoFisher Scientific). After 48 hours, soluble B7-H7-Fc (serially diluted from 10 to 0.16 pg/ml) was added to the wells and plates were incubated from one hour at room temperature. An Alexa Fluor® 488-labeled anti-human Fc secondary antibody was added to the wells and plates were incubated for one hour at room temperature. Cells were washed with HBSS and fixed for 15 minutes with 7.4% formalin in PBS. Cells were washed with PBS and the fluorescence signals were detected using a CellInsight™ platform (ThermoFisher Scientific). A similar experiment was conducted with cells transiently transfected with a B7-H7 construct and soluble biotinylated KIR3DF3 ECD. An Alexa Fluor® 488-labeled streptavidin was used for detection.

For assay [7], the target named is T2, human B7-H7 expressed on the cell …. Put plainly: cell-based fluorescence assay (CellInsight): soluble biotinylated KIR3DL3 ECD on cells transfected with B7-H7, Alexa Fluor 488 streptavidin detection; soluble biotinylated KIR3DL3 ECD on B7-H7-transfected cells. The method, then: as §3

B1: anti-B7-H7 antibody 2D7 (antibody, V domains shown)
VH: EVQLQQSGPELVKPGASVKISCKTSGYTFTEYTMHWVKQSHGKSLEWIGGINPNNYGAPYNQKFKGKATLTVDKSSNTAYMELRSLTSEDSAIYYCASGGYYFDYWGQGTTLTVSS
VL: DIVMTQSHKFMSTSFGDRVSITCKASQDVGTAVAWYQQKLGQSPKLLISWAFTRHTGVPDRFTGSGSGTDYTLTISSLQAEDLALYYCQQHYDTPFTFGSGTKLEIK
notes: Parental mouse hybridoma antibody raised against human B7-H7-Fc
Consider B1, for which the Kd in assay [1] and in assay [3] was < 0.1 nM each time. Besides, the IC50 – broadly, the point on the concentration scale where inhibition reaches its midpoint – in assay [2] was 2.1 nM; in assay [5], 2 nM. The koff (commonly the rate constant with which the complex falls apart) in assay [3] was 1e-05 s⁻¹. Also, the “Induction of NK-92 cytotoxicity EC50” value in assay [4] worked out at 1 nM.

B2: chimeric 2D7 antibody comprising the murine heavy chain and light chain variable regions of 2D7 and a human Fc region (antibody, V domains shown)
VH: EVQLQQSGPELVKPGASVKISCKTSGYTFTEYTMHWVKQSHGKSLEWIGGINPNNYGAPYNQKFKGKATLTVDKSSNTAYMELRSLTSEDSAIYYCASGGYYFDYWGQGTTLTVSS
VL: DIVMTQSHKFMSTSFGDRVSITCKASQDVGTAVAWYQQKLGQSPKLLISWAFTRHTGVPDRFTGSGSGTDYTLTISSLQAEDLALYYCQQHYDTPFTFGSGTKLEIK
As to B2, in assay [3], the Kd (usually the free concentration of one partner at which half of the binding sites on the other are occupied at equilibrium, for simple one-to-one binding) was < 0.1 nM and the koff was determined as 5.61e-06 s⁻¹.

Molecule B3 returned a Kd in assay [6] of 15 nM.

B4: soluble biotinylated KIR3DL3 ECD (receptor)
chain: QDKPFLSAWPGTVVSEGQHVTLQCRSRLGFNEFSLSKEDGMPVPELYNRIFRNSFLMGPVTPAHAGTYRCCSSHPHSPTGWSAPSNPVVIMVTGVHRKPSLLAHPGPLVKSGETVILQCWSDVRFERFLLHREGITEDPLRLVGQLHDAGSQVNYSMGPMTPALAGTYRCFGSVTHLPYELSAPSDPLDIVVVGLYGKPSLSAQPGPTVQAGENVTLSCSSRSLFDIYHLSREAEAGELRLTAVLRVNGTFQANFPLGPVTHGGNYRCFGSFRALPHAWSDPSDPLPVSVTGNSRHL
modifications: biotinylated (site not stated)
notes: also called soluble biotinylated KIR3DF3 ECD (so in the source); soluble KIR3DL3
B4: the Kd in assay [7] was found to be 192 nM.

B5: humanized anti-B7-H7 antibody Hz2D7 (antibody, human IgG1, kappa, V domains shown)
VH: QVQLVQSGAEVKKPGASVKVSCKTSGYTFTEYTMHWVRQAPGQGLEWMGGINPNNYGAPYNQKFKGRVTMTVDTSISTAYMELSRLRSDDTAVYYCASGGYYFDYWGQGTLVTVSS
VL: DIQMTQSPSSLSASVGDRVTITCKASQDVGTAVAWYQQKPGKAPKLLIYWAFTRHTGVPSRFSGSGSGTDYTLTISSLQPEDFATYYCQQHYDTPFTFGQGTKVEIKR
Consider B5, for which, in assay [3], the Kd was < 0.1 nM and the koff came to 1.01e-05 s⁻¹.
